According to paper PMC3604124, “Glyceraldehyde-3-Phosphate Dehydrogenase Interacts with Proapoptotic Kinase Mst1 to Promote Cardiomyocyte Apoptosis” (PLoS ONE, 2013):

Target: T1, Myc-tagged Mst1 (UniProt Q13043 1-487)
T1 sequence (looked up): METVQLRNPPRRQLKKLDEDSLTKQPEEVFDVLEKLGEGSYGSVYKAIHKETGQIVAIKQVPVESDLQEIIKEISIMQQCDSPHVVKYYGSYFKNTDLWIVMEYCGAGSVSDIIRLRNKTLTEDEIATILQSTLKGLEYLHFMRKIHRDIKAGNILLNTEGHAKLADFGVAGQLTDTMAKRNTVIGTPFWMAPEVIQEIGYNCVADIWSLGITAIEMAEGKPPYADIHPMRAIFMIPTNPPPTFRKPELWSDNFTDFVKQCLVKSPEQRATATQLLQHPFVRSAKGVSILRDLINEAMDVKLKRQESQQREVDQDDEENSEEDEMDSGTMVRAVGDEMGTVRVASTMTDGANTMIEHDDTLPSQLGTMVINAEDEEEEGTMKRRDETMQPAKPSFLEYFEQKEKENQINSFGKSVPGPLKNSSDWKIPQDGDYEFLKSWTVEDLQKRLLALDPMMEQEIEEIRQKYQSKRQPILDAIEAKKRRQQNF
Experiment: cell-based or functional assay

in vitro kinase assay of Mst1 immunoprecipitated from HEK293T cells transfected with Myc-Mst1 with or without Flag-GAPDH: Mst1 autophosphorylation and MBP phosphorylation, increase with GAPDH: ~2 fold
B1: FLAG-tagged GAPDH (enzyme)
chain: not shown
